Measurements published in US20220403009A1.

Legend:
[1] = target: SARS-CoV-1 spike protein on HIV-based pseudovirus (SARS-CoV) (UniProt P59594); test: cell-based or functional assay
[2] = target: SARS-CoV-2 spike protein on pseudovirus (SARS-CoV-2) (UniProt P0DTC2); test: cell-based or functional assay

Substance | Fold Over IgG1 (CoV-1) By Molar [1] | Fold Over IgG1 (CoV-1) By Weight [1] | IC50, SARS-CoV-1 pseudovirus neutralization [1] | IC50, SARS-CoV-2 pseudovirus neutralization [2]
CR3014 IgM + J (antibody) | > 80 fold | > 13 fold | < 0.0051 µg/mL | > 100000 µg/mL
CR3014 IgG1 (antibody) | 1 fold | 1 fold | 0.068 µg/mL | > 100000 µg/mL
